Article PMC2878131 (Science (New York, N.Y.), 2010)

Biological target: T1, preMADH α subunit (Paracoccus denitrificans, UniProt P29894 29-417)
T1 sequence (looked up): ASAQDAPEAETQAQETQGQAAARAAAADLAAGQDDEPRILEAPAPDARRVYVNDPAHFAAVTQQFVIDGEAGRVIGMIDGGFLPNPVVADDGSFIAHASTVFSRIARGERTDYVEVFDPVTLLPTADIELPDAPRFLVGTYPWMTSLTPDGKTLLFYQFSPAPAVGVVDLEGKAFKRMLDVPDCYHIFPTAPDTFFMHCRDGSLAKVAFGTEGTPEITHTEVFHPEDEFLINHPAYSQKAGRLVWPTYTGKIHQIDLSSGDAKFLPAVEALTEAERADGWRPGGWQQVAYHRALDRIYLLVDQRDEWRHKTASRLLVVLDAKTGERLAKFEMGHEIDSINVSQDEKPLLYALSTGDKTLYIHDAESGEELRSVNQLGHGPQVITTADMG
Test: crystal structure

binding result: binds
B1: preMADH β subunit (natural protein, Paracoccus denitrificans, UniProt P22619 58-188, looked up)
chain: ADAPAGTDPRAKWVPQDNDIQACDYWRHCSIDGNICDCSGGSLTNCPPGTKLATASWVASCYNPTDGQSYLIAYRDCCGYNVSGRCPCLNTEGELPVYRPEFANDIIWCFGAEDDAMTYHCTISPIVGKAS
modifications: βTrp57 monohydroxylated at the C7 carbon of the indole ring; no cross-link between βTrp57 and βTrp108
